In patent US20190353654A1:
Values belong to the binder of their own block, whether it stands above or below them.

What was measured:
[1] = target: CXCL12 24-88 (UniProt P48061); experiment: MicroScale Thermophoresis, labeled receptor, ligand titrated, in 50% human serum
[2] = target: CXCL12 24-88 (UniProt P48061); experiment: MicroScale Thermophoresis, earlier independent purification and refolding from E. coli inclusion bodies
[3] = target: CXCL12 24-88 (UniProt P48061); experiment: MicroScale Thermophoresis, labeled receptor, ligand titrated, in buffer (1x PBS, 5 mM DTT)
[4] = target: CXCL12 24-88 (UniProt P48061); experiment: MicroScale Thermophoresis, later independent purification and refolding from E. coli inclusion bodies
[5] = target: CCL5 26-91 (UniProt P13501); experiment: MicroScale Thermophoresis, labeled receptor, ligand titrated, in 50% human serum
Chain of CCL5 26-91 (P13501 26-91 limits assumed, form in doubt): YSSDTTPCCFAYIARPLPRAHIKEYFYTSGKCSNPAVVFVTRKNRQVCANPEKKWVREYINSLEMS

[6] = target: CCL5 26-91 (UniProt P13501); experiment: MicroScale Thermophoresis, earlier independent purification from SF9 cells
[7] = target: CCL5 26-91 (UniProt P13501); experiment: MicroScale Thermophoresis, labeled receptor, ligand titrated, in buffer (1x PBS, 5 mM DTT)

Chain of CXCL12 24-88 (P48061 24-88 limits assumed, form in doubt): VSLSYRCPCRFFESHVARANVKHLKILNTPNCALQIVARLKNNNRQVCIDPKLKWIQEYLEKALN

- Kd [1]: 44.7 nM
- Kd [2]: 17 nM
- Kd [3]: 11.2 nM
- Kd [4]: 13 nM
B1: CXCR4^QTY (receptor, not shown: small tags and cut ends)
chain: MEGISIYTSDNYTEEMGSGDYDSMKEPCFREENANFNKTYQPTTYSTTYQTGTTGQGQTTQTMGYQKKQRSMTDKYRQHQSTADQQYTTTQPYWATDATANWYFGNFQCKATHTTYTTQQYSSTQTQAYTSQDRYLAIVHATNSQRPRKQQAEKTTYTGTWTPAQQQTTPDYTYANVSEADDRYICDRFYPNDLWTTTYQYQHTMTGQTQPGTTTQSCYCTTTSKLSHSKGHQKRKALKTTTTQTQAYYACWQPYYTGTSTDSFILLEIIKQGCEFENTVHKWTSTTEAQAYYHCCQQPTQYAYQGAKYKTSAQHAQTSTSRGSSQKTQSKGKRGGHSSTSTESESSSFHSS
modifications: Receptor labelled with NT647 dye (RED-NHS, on amines) for MST; sites not specified

- Kd [1]: 6.6 nM
- Kd [3]: 2.2 nM
B2: CXCR7^QTY (receptor, not shown: small tags and cut ends)
chain: MDLHLFDYSEPGNFSDISWPCNSSDCIVVDTVMCPNMPNKSTQQYTQSYTYTYTYTTGMTANSVVVWVNIQAKTTGYDTHCYTQNQATADQWTTQTTPTWTTSLVQHNQWPMGELTCKTTHQTYSTNQYGSTYYQTCMSVDRYLSITYFTNTPSSRKKMVRRTTCTQTWQQAYCTSQPDTYYQKTVTSASNNETYCRSFYPEHSIKEWLIGMEQTSTTQGYATPYSTTATYYYQLARAISASSDQEKHSSRKTTYSYTTTYQTCWQPYHTATQLDIFSILHYIPFTCRLEHALFTAQHTTQCQSQTHCCTNPTQYSYTNRNYRYELMKAFIFKYSAKTGLTKLIDASRVSETEYSALEQSTK
modifications: The receptor was labelled with NT647 (RED-NHS dye on lysines, positions not defined) for MST. The letters do not carry this.

- Kd [5]: 45.9 nM
- Kd [6]: 42 nM
- Kd [7]: 33.9 nM
B3: CCR5^QTY (receptor, not shown: small tags and cut ends)
chain: MDYQVSSPIYDINYYTSEPCQKINVKQIAARQQPPQYSQTFTYGFTGNMQTTQTQINCKRLKSMTDIYLQNQAISDQYYQQTTPYWAHYAAAQWDFGNTMCQQQTGQYFTGYYSGTYYTTQQTTDRYLAVVHAVFALKARTTTYGTTTSTTTWTTATYASQPGTTYTRSQKEGLHYTCSSHFPYSQYQFWKNFQTLKITIQGQVQPQQTMVTCYSGTQKTLLRCRNEKKRHRAVRQTFTTMTTYYQYWAPYNTTQQLNTFQEFFGLNNCSSSNRLDQAMQVTETQGMTHCCTNPTIYAYVGEKFRNYLLVFFQKHIAKRFCKCCSIFQQEAPERASSVYTRSTGEQEISVGL
modifications: Receptor labelled with NT647 dye (RED-NHS, on amines) for MST; sites not specified
